Legend:
[1] = molecular target: off-target HLA-A*01:01_… (PTS) on cells (human); assay: IP-MS, NCI-H1703 lysate, Rep2
[2] = molecular target: HLA-A*01:01 with … (RBM4) from cells (human); assay: IP-MS, NCI-H1703 lysate, Rep2
[3] = molecular target: HLA-A*01:01 with … (ERGIC3) from cells (human); assay: IP-MS, NCI-H1703 lysate, Rep2
[4] = molecular target: off-target HLA-A*01:01_… (KDM7A) on cells (human); assay: IP-MS, NCI-H1703 lysate, Rep2
[5] = molecular target: HLA-A*01:01 with … (DSG3) from cells (human); assay: IP-MS, NCI-H1703 lysate, Rep2
[6] = molecular target: HLA-PEPTIDE target A*01:01_… (G2) on cells (human); assay: IP-MS, NCI-H1703 lysate, Rep2
[7] = molecular target: off-target HLA-A*01:01_… (ICE1) on cells (human); assay: IP-MS, NCI-H1703 lysate, Rep2
[8] = molecular target: HLA-A*01:01 with … (ROBO1) on cells (human); assay: IP-MS, NCI-H1703 lysate, Rep2
[9] = molecular target: HLA-A*01:01 with … (DSG4) from cells (human); assay: IP-MS, NCI-H1703 lysate, Rep2
[10] = molecular target: HLA-A*01:01 with … (UBR2) from cells (human); assay: IP-MS, NCI-H1703 lysate, Rep2
[11] = molecular target: off-target HLA-A*01:01_… (PTS) on cells (human); assay: IP-MS, K562-A*01:01 lysate
[12] = molecular target: HLA-A*01:01 with … (RBM4) from cells (human); assay: IP-MS, K562-A*01:01 lysate
[13] = molecular target: HLA-A*01:01 with … (ERGIC3) from cells (human); assay: IP-MS, K562-A*01:01 lysate
[14] = molecular target: HLA-A*01:01 with … (UBR2) from cells (human); assay: IP-MS, K562-A*01:01 lysate
[15] = molecular target: off-target HLA-A*01:01_… (PTS) on cells (human); assay: IP-MS, NCI-H1703 lysate, Rep1
[16] = molecular target: HLA-A*01:01 with … (RBM4) from cells (human); assay: IP-MS, NCI-H1703 lysate, Rep1
[17] = molecular target: HLA-A*01:01 with … (ERGIC3) from cells (human); assay: IP-MS, NCI-H1703 lysate, Rep1
[18] = molecular target: off-target HLA-A*01:01_… (KDM7A) on cells (human); assay: IP-MS, NCI-H1703 lysate, Rep1
[19] = molecular target: HLA-A*01:01 with … (DSG3) from cells (human); assay: IP-MS, NCI-H1703 lysate, Rep1
[20] = molecular target: HLA-PEPTIDE target A*01:01_… (G2) on cells (human); assay: IP-MS, NCI-H1703 lysate, Rep1
[21] = molecular target: off-target HLA-A*01:01_… (ICE1) on cells (human); assay: IP-MS, NCI-H1703 lysate, Rep1
[22] = molecular target: HLA-A*01:01 with … (ROBO1) on cells (human); assay: IP-MS, NCI-H1703 lysate, Rep1
[23] = molecular target: HLA-A*01:01 with … (DSG4) from cells (human); assay: IP-MS, NCI-H1703 lysate, Rep1
[24] = molecular target: HLA-A*01:01 with … (UBR2) from cells (human); assay: IP-MS, NCI-H1703 lysate, Rep1
[25] = molecular target: HLA-A*01:01 with … (DSG3) from cells (human); assay: IP-MS, NCI-H1703 lysate, Rep2 (peptide also 0 with W6/32)
[26] = molecular target: HLA-A*01:01 with … (DSG4) from cells (human); assay: as above
[27] = molecular target: HLA-A*01:01 with … (DSG3) from cells (human); assay: IP-MS, NCI-H1703 lysate, Rep1 (peptide also 0 with W6/32)
[28] = molecular target: HLA-A*01:01 with … (DSG4) from cells (human); assay: as above

Substance	copies per cell of the peptide recovered by immunoprecipitation (copies per cell) [1]	copies per cell of the peptide recovered by immunoprecipitation (copies per cell) [2]	copies per cell of the peptide recovered by immunoprecipitation (copies per cell) [3]	copies per cell of the peptide recovered by immunoprecipitation (copies per cell) [7]	copies per cell of the peptide recovered by immunoprecipitation (copies per cell) [10]	copies per cell of the peptide recovered by immunoprecipitation (copies per cell) [15]	copies per cell of the peptide recovered by immunoprecipitation (copies per cell) [16]	copies per cell of the peptide recovered by immunoprecipitation (copies per cell) [17]	copies per cell of the peptide recovered by immunoprecipitation (copies per cell) [21]	copies per cell of the peptide recovered by immunoprecipitation (copies per cell) [24]	further results
W6/32 antibody	2980	16700	3350	2740	876	2930	16700	3360	2660	891	copies per cell of the peptide recovered by immunoprecipitation (copies per cell) [4]: 2; copies per cell of the peptide recovered by immunoprecipitation (copies per cell) [5]: 0; copies per cell of the peptide recovered by immunoprecipitation (copies per cell) [6]: 4040; copies per cell of the peptide recovered by immunoprecipitation (copies per cell) [8]: 517; copies per cell of the peptide recovered by immunoprecipitation (copies per cell) [9]: 0; copies per cell of the peptide recovered by immunoprecipitation (copies per cell) [11]: 91; copies per cell of the peptide recovered by immunoprecipitation (copies per cell) [12]: 1000; copies per cell of the peptide recovered by immunoprecipitation (copies per cell) [13]: 96; copies per cell of the peptide recovered by immunoprecipitation (copies per cell) [14]: 6; copies per cell of the peptide recovered by immunoprecipitation (copies per cell) [18]: 2; copies per cell of the peptide recovered by immunoprecipitation (copies per cell) [19]: 0; copies per cell of the peptide recovered by immunoprecipitation (copies per cell) [20]: 3790; copies per cell of the peptide recovered by immunoprecipitation (copies per cell) [22]: 554; copies per cell of the peptide recovered by immunoprecipitation (copies per cell) [23]: 0
control IgG antibodies (antibody)	25	79	15	21	4	32	113	25	35	6	copies per cell of the peptide recovered by immunoprecipitation (copies per cell) [25]: 0; copies per cell of the peptide recovered by immunoprecipitation (copies per cell) [26]: 0; copies per cell of the peptide recovered by immunoprecipitation (copies per cell) [27]: 0; copies per cell of the peptide recovered by immunoprecipitation (copies per cell) [28]: 0
